Experimental findings from US20240093255A1, “BIOSYNTHETIC PRODUCTION OF 2-FUCOSYLLACTOSE” (Conagen Inc., priority 2020, published 2024) are described below.

This experiment in a line: GDP-L-fucose inhibition assay of GMD enzymes (GDP-4-keto-6-deoxymannose detection). Format: biochemical. The following applies: 350 μM GDP-L-fucose; 1 mM GDP-mannose, 0.5 mg/mL GMD. Here is the method:
To test for inhibition, the mutants were expressed and purified as described in Example 7, and assayed at a range of GDP-L-fucose concentrations. The assay conditions were as follows: 50 mM Tris pH 7.5, 1 mM GDP-mannose, 0.5 mM NADP^+, 0.5 mg/mL dehydratase (GMD) enzyme, and 0 μM, 70 μM or 350 μM GDP-L-fucose. The reactions were quenched at 99° C. for 10 minutes, and the enzymes' respective activities were analyzed using the nucleotide sugar LC-MS method by GDP-4-keto-6-deoxymannose detection.

B1: Ec WT: GDP-mannose-4,6-dehydratase from Escherichia coli, wild type, SEQ ID NO: 11 (protein, listed as Escherichia coli)
chain: MSKVALITGVTGQDGSYLAEFLLEKGYEVHGIKRRASSFNTERVDHIYQDPHTCNPKFHLHYGDLSDTSNLTRILREVQPDEVYNLGAMSHVAVSFESPEYTADVDAMGTLRLLEAIRFLGLEKKTRFYQASTSELYGLVQEIPQKETTPFYPRSPYAVAKLYAYWITVNYRESYGMYACNGILFNHESPRRGETFVTRKITRAIANIAQGLESCLYLGNMDSLRDWGHAKDYVKMQWMMLQQEQPEDFVIATGVQYSVRQFVEMAAAQLGIKLRFEGTGVEEKGIVVSVTGHDAPGVKPGDVIIAVDPRYFRPAEVETLLGDPTKAHEKLGWKPEITLREMVSEMVANDLEAAKKHSLLKSHGYDVAIALES
B1 came in with a decrease in activity of 80%.

B2: Hs GMD wild type: GDP-mannose-4,6-dehydratase from Homo sapiens, wild type, SEQ ID NO: 9 (protein, listed as Homo sapiens)
chain: MRNVALITGITGQDGSYLAEFLLEKGYEVHGIVRRSSSFNTGRIEHLYKNPQAHIEGNMKLHYGDLTDSTCLVKIINEVKPTEIYNLGAQSHVKISFDLAEYTADVDGVGTLRLLDAVKTCGLINSVKFYQASTSELYGKVQEIPQKETTPFYPRSPYGAAKLYAYWIVVNFREAYNLFAVNGILFNHESPRRGANFVTRKISRSVAKIYLGQLECFSLGNLDAKRDWGHAKDYVEAMWLMLQNDEPEDFVIATGEVHSVREFVEKSFLHIGKTIVWEGKNENEVGRCKETGKVHVTVDLKYYRPTEVDFLQGDCTKAKQKLNWKPRVAFDELVREMVHADVELMRTNPNA
Turning to B2, the retained activity entry is reported as “less than 5%”.

B3: Hs GMD M3: mutant human GMD targeting the GDP-L-fucose allosteric binding pocket, SEQ ID NO: 83 (protein)
chain: MRNVALITGITGQDGSYLAEFLLEKGYEVHGIVRRSSSFNTGRIEHLYKNPQAHIEGNMKLHYGDLTDSTCLVKIINEVKPTEIYNLGAQSHVKISFDLAEYTADVDGVGTLRLLDAVKTCGLINSVKFYQASTSELYGKVQEIPQKETTPFYPRSPYGAAKLYAYWIVVNFREAYNLFAVNGILFNHESPRRGANFVTRAISRSVAKIYLGQLECFSLGNLDAKRDWGHAKDYVEAMWLMLQNDEPEDFVIATGEVHSVREFVEKSFLHIGKTIVWEGKNENEVGRCKETGKVHVTVDLKYYRPTEVDFLQGDCTKAKQKLNWKPRVAFDELVREMVHADVELMRTNPNA
modifications: Homo sapiens GMD mutant
Regarding B3, the retained activity is 100%.

B4: Hs GMD M4: mutant human GMD targeting the GDP-L-fucose allosteric binding pocket, SEQ ID NO: 85 (protein)
chain: MRNVALITGITGQDGSYLAEFLLEKGYEVHGIVRRSSSFNTGRIEHLYKNPQAHIEGNMKLHYGDLTDSTCLVKIINEVKPTEIYNLGAQSHVKISFDLAEYTADVDGVGTLRLLDAVKTCGLINSVKFYQASTSELYGKVQEIPQKETTPFYPRSPYGAAKLYAYWIVVNFREAYNLFAVNGILFNHESPRRGANFVTRKISASVAKIYLGQLECFSLGNLDAKRDWGHAKDYVEAMWLMLQNDEPEDFVIATGEVHSVREFVEKSFLHIGKTIVWEGKNENEVGRCKETGKVHVTVDLKYYRPTEVDFLQGDCTKAKQKLNWKPRVAFDELVREMVHADVELMRTNPNA
modifications: Homo sapiens GMD mutant
As to B4, the retained activity came out at 100%.

B5: Hs GMD M2: mutant human GMD targeting the GDP-L-fucose allosteric binding pocket, SEQ ID NO: 81 (protein)
chain: MRNVALITGITGQDGSYLAEFLLEKGYEVHGIVRRSSSFNTGRIEHLYKNPQAAIEGNMKLHYGDLTDSTCLVKIINEVKPTEIYNLGAQSHVKISFDLAEYTADVDGVGTLRLLDAVKTCGLINSVKFYQASTSELYGKVQEIPQKETTPFYPRSPYGAAKLYAYWIVVNFREAYNLFAVNGILFNHESPRRGANFVTRKISRSVAKIYLGQLECFSLGNLDAKRDWGHAKDYVEAMWLMLQNDEPEDFVIATGEVHSVREFVEKSFLHIGKTIVWEGKNENEVGRCKETGKVHVTVDLKYYRPTEVDFLQGDCTKAKQKLNWKPRVAFDELVREMVHADVELMRTNPNA
modifications: Homo sapiens GMD mutant
Molecule B5 displayed a retained activity of 80%.

B6: At GMD M4: mutant Arabidopsis thaliana GMD targeting the GDP-L-fucose allosteric binding pocket, SEQ ID NO: 79 (protein)
chain: MASENNGSRSDSESITAPKADSTVVEPRKIALITGITGQDGSYLTEFLLGKGYEVHGLIRRSSNFNTQRINHIYIDPHNVNKALMKLHYADLTDASSLRRWIDVIKPDEVYNLAAQSHVAVSFEIPDYTADVVATGALRLLEAVRSHTIDSGRTVKYYQAGSSEMFGSTPPPQSETTPFHPRSPYAASKCAAHWYTVNYREAYGLFACNGILFNHESPRRGENFVTRKITAALGRIKVGLQTKLFLGNLQASRDWGFAGDYVEAMWLMLQQEKPDDYVVATEEGHTVEEFLDVSFGYLGLNWKDYVEIDQRYFRPAEVDNLQGDASKAKEVLGWKPQVGFEKLVKMMVDEDLELAKREKVLVDAGYMDAKQQP
modifications: Arabidopsis thaliana GMD mutant
B6 showed a retained activity of 100%.

B7: At GMD M3: mutant Arabidopsis thaliana GMD targeting the GDP-L-fucose allosteric binding pocket, SEQ ID NO: 77 (protein)
chain: MASENNGSRSDSESITAPKADSTVVEPRKIALITGITGQDGSYLTEFLLGKGYEVHGLIRRSSNFNTQRINHIYIDPHNVNKALMKLHYADLTDASSLRRWIDVIKPDEVYNLAAQSHVAVSFEIPDYTADVVATGALRLLEAVRSHTIDSGRTVKYYQAGSSEMFGSTPPPQSETTPFHPRSPYAASKCAAHWYTVNYREAYGLFACNGILFNHESPRRGENFVTRAITRALGRIKVGLQTKLFLGNLQASRDWGFAGDYVEAMWLMLQQEKPDDYVVATEEGHTVEEFLDVSFGYLGLNWKDYVEIDQRYFRPAEVDNLQGDASKAKEVLGWKPQVGFEKLVKMMVDEDLELAKREKVLVDAGYMDAKQQP
modifications: Arabidopsis thaliana GMD mutant
Turning to B7, the retained activity stood at 50%.

B8: At GMD M2: mutant Arabidopsis thaliana GMD targeting the GDP-L-fucose allosteric binding pocket, SEQ ID NO: 75 (protein)
chain: MASENNGSRSDSESITAPKADSTVVEPRKIALITGITGQDGSYLTEFLLGKGYEVHGLIRRSSNFNTQRINHIYIDPANVNKALMKLHYADLTDASSLRRWIDVIKPDEVYNLAAQSHVAVSFEIPDYTADVVATGALRLLEAVRSHTIDSGRTVKYYQAGSSEMFGSTPPPQSETTPFHPRSPYAASKCAAHWYTVNYREAYGLFACNGILFNHESPRRGENFVTRKITRALGRIKVGLQTKLFLGNLQASRDWGFAGDYVEAMWLMLQQEKPDDYVVATEEGHTVEEFLDVSFGYLGLNWKDYVEIDQRYFRPAEVDNLQGDASKAKEVLGWKPQVGFEKLVKMMVDEDLELAKREKVLVDAGYMDAKQQP
modifications: Arabidopsis thaliana GMD mutant
Molecule B8 gave a retained activity of 40%.
